Measured values taken from patent publication US20170246372A1.

Target: ADAMTS-5 (UniProt Q9UNA0)
Test: cell-based or functional assay

Sequence of UniProt Q9UNA0 (Q9UNA0 262-622 limits assumed): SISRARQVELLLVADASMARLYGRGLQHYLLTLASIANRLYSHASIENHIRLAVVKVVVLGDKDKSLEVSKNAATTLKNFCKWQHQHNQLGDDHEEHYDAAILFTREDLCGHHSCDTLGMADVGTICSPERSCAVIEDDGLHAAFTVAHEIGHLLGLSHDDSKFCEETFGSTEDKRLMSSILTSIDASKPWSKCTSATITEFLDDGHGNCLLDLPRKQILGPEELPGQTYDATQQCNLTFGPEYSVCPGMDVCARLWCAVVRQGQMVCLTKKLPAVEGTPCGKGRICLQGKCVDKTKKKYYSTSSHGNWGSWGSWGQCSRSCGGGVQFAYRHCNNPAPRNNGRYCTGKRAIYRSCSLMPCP

- IC50 for inhibiting 500 ng/ml of ADAMTS-5 (bovine cartilage explants, 2 days, 3-fold serial dilution of A2M): 7 µg/mL
- Maximum inhibition (bovine cartilage explants treated with protease, 2 days): 90%
Substance: purified A2M (alpha-2-macroglobulin) (from UniProt P01023 24-1474)
